# According to patent US9555076B2, “Neuregulin based methods and compositions for treating cardiovascular diseases” (Zensun (Shanghai) Science & Technology, Co., Ltd., priority 2002, dated 2017):
# “And” between values parts separate entries of the source, which are not always exact repeats. Equal entries are not always repeated.
# B1: rhNRG-1 β: Recombinant human neuregulin fragment of 61 amino acid (SEQ ID NO:4), 3 disulfide bonds, expressed in E. coli (protein, listed as Homo sapiens)
# chain: SHLVKCAEKEKTFCVNGGECFMVKDLSNPSRYLCKCPNEFTGDRCQNYVMASFYKAEELYQ
# modifications: disulfide (positions not given here)
# How the values were obtained:
# [1] = system: toxic myocarditis caused by Adriamycin in rat; test: Serum troponin T (cTnT) level, Adriamycin rat model; assay type: in vivo, SD rat; settings: Adriamycin model, (I)
# Description: 2 ml of arterial blood was withdrawn, serum extracted, frozen and stored at −20° C., determination of serum cTnT content was performed with electrochemistry irradiate method submitted to be carried out by Clinical Laboratory of Zhong Shan Hospital.
# [2] = system: Rhesus; test: Rhesus long-term toxicity study, 3 weeks iv plus 3 weeks convalescence; settings: 7.5, 15, 75 μg/kg/d iv 3 weeks
# [3] = system: heart failure in rat caused by ligation of coronary artery; test: Echocardiography heart function, heart failure by ligation of coronary artery; assay type: in vivo, SD rat
# Description: Route of drug administration: in both testing drug group and model group the drug was injected into the tail vein once per day for consecutive 5 days. Echocardiography was performed at the 6th day prior to drug administration, then continuously injected for 5 days. Volume of each drug injection was 0.4 ml/100 g body weight.
# After anesthesia with intra-abdominal injection of 100 mg/kg ketamine, the rat was fixed on rat plate in supine position, disinfection of the neck region with bromo-geramine was carried out after depilating. Midline incision was made, trachea was found after separating the anterior cervical muscle, 18 G arterial indwelling trochar was inserted into the trachea at the level of 3-5 tracheal cartilage, took out the stylet, push the plastic cannula 1-2 cm further into the trachea, fixed it for later connection with ventilator for small animal (tidal volume was about […], frequency was 80/min). […] Then closed the chest wall, block the opening of the ventilator to inflate the lungs, forcefully pressed the chest to drive out the air, then sutured the chest muscle and skin. Monitoring the respiration, after spontaneous respiration recovered, withdrawn the ventilator, took the animal back to its cage for breeding. In the pseudo-operation group, only the pericardium was tore open, but without the coronary artery ligation.
# Echocardiograph was performed for the operated rat at about 6 days postoperatively, those animals with about 50% reduction of EF value were randomly divided into groups, the EF value of each group was all about 50%, then drug administration began.
# Those animals with EF value of about 50% were randomly divided into model group (negative group) and 3-dosage level testing drug groups with 12-13 animals in each group. Route of drug administration in testing drug group and model group was injection into the tail vein, once every day for consecutive 5 days. After echocardiography at the 6th day, another 5 days of consecutive drug administration was carried out. Drug volume of each injection was 0.4 ml/100 g body weight.
# Echocardiography was performed under anesthesia with ketamine after the legation and prior to drug administration and at the 6th day, 11th day of drug administration, the major index included: • EF: heart ejection fraction, reflecting ejection function of ventricle; • FS: ventricular short axis shortening rate, reflecting contraction function of ventricle; • LVDd: diastolic maximal inner diameter of left ventricle (cm); • LVDs: systolic minimal inner diameter of left ventricle (cm). 6.3.3.2 Determination of the Content of Plasma Renin-angiotensin-aldosterone
# [4] = 5 μg/kg group, prior to drug administration, (1)
# [5] = 5 μg/kg iv 10 qd, 10 days after the drug administration, (II)
# [6] = 5 μg/kg iv qd × 5, 5 days after the drug administration, (1)
# [7] = 5 μg/kg iv qd × 5, 5 days after the drug administration, (II)
# [8] = 5 μg/kg iv qd × 10, 10 days after the drug administration, (1)
# [9] = 5 μg/kg, Table 4, titled 10 days after the drug administration, (II)
# [10] = 10 μg/kg group, prior to drug administration, (1)
# [11] = 10 μg/kg iv 10 qd, 10 days after the drug administration, (II)
# [12] = 10 μg/kg iv qd × 5, 5 days after the drug administration, (1)
# [13] = 10 μg/kg iv qd × 5, 5 days after the drug administration, (II)
# [14] = 10 μg/kg iv qd × 10, 10 days after the drug administration, (1)
# [15] = 10 μg/kg, Table 4, titled 10 days after the drug administration, (II)
# [16] = 20 μg/kg group, prior to drug administration, (1)
# [17] = 20 μg/kg iv 10 qd, 10 days after the drug administration, (II)
# [18] = 20 μg/kg iv qd × 5, 5 days after the drug administration, (1)
# [19] = 20 μg/kg iv qd × 5, 5 days after the drug administration, (II)
# [20] = 20 μg/kg iv qd × 10, 10 days after the drug administration, (1)
# [21] = 20 μg/kg, Table 4, titled 10 days after the drug administration, (II)
molecule,measurement,setting,value
B1,cTnT,[1]; 10 μg/kg iv qd × 10 d,0.074 ± 0.024 ng/mL
same,cTnT,"[1]; 10 μg/kg iv qd × 10 d, listed as rhNRG-1β",0.074 ± 0.024 ng/mL
same,cTnT,[1]; 20 μg/kg iv qd × 10 d,0.031 ± 0.006 ng/mL
same,cTnT,"[1]; 20 μg/kg iv qd × 10 d, listed as rhNRG-1β",0.031 ± 0.006 ng/mL
same,cTnT,[1]; 40 μg/kg iv qd × 10 d,0.025 ± 0.011 ng/mL
same,cTnT,"[1]; 40 μg/kg iv qd × 10 d, listed as rhNRG-1β",0.025 ± 0.011 ng/mL
same,animal death,[2],No animal death associated with the testing drug
same,EF,[3]; [4],49.3%
same,FS,[3]; [4],22.0%
same,LVDd,[3]; [4],0.761 cm
same,LVDs,[3]; [4],0.596 cm
same,EF,[3]; [5],57.90%
same,FS,[3]; [5],29.26%
same,LVDd,[3]; [5],0.70 cm
same,LVDs,[3]; [5],0.53 cm
same,EF,[3]; [6],62.9±8.4% and 62.90%
same,FS,[3]; [6],30.3±6.1% and 30.32%
same,LVDd,[3]; [6],0.73 cm
same,LVDs,[3]; [6],0.54 cm
same,EF,[3]; [7],56.76%
same,FS,[3]; [7],28.35%
same,LVDd,[3]; [7],0.74 cm
same,LVDs,[3]; [7],0.58 cm
same,EF,[3]; [8],59.2±12.4% and 59.2%
same,FS,[3]; [8],28.4±8.6% and 28.4%
same,LVDd,[3]; [8],0.72 cm
same,LVDs,[3]; [8],0.55 cm
same,EF value,"[3]; 5 μg/kg, 5-day after drug administration and 35-day after drug withdrawal",69.9 ± 28.6%
same,EF value,"[3]; 5 μg/kg, 5-day after drug administration, long-term monitoring",75.8 ± 15.3%
same,EF,[3]; [9],50.81%
same,FS,[3]; [9],22.83%
same,LVDd,[3]; [9],0.66 cm
same,LVDs,[3]; [9],0.51 cm
same,EF,[3]; [10],49.5%
same,FS,[3]; [10],22.1%
same,LVDd,[3]; [10],0.709 cm
same,LVDs,[3]; [10],0.555 cm
same,EF,[3]; [11],66.54%
same,FS,[3]; [11],34.28%
same,LVDd,[3]; [11],0.68 cm
same,LVDs,[3]; [11],0.49 cm
same,EF,[3]; [12],64.4±12.9% and 64.3±12.8% and 64.35%
same,FS,[3]; [12],32.0±9.5% and 32.01%
same,LVDd,[3]; [12],0.71 cm
same,LVDs,[3]; [12],0.51 cm
same,EF,[3]; [13],56.51%
same,FS,[3]; [13],26.53%
same,LVDd,[3]; [13],0.72 cm
same,LVDs,[3]; [13],0.54 cm
same,EF,[3]; [14],61.4±15.0% and 61.4%
same,FS,[3]; [14],30.3±10.4% and 30.3%
same,LVDd,[3]; [14],0.7 cm
same,LVDs,[3]; [14],0.51 cm
same,EF value,"[3]; 10 μg/kg, 5-day after drug administration and 35-day after drug withdrawal",63.8 ± 23.8%
same,EF value,"[3]; 10 μg/kg, 5-day after drug administration, long-term monitoring",77.3 ± 11.6%
same,EF,[3]; [15],51.67%
same,FS,[3]; [15],23.27%
same,LVDd,[3]; [15],0.64 cm
same,LVDs,[3]; [15],0.49 cm
same,EF value,"[3]; 10 μg/kg, after ligation prior to drug administration, long-term monitoring",52.2 ± 12.8%
same,EF,[3]; [16],49.3%
same,FS,[3]; [16],21.7%
same,LVDd,[3]; [16],0.730 cm
same,LVDs,[3]; [16],0.575 cm
same,EF,[3]; [17],70.22%
same,FS,[3]; [17],36.49%
same,LVDd,[3]; [17],0.65 cm
same,LVDs,[3]; [17],0.42 cm
same,EF,[3]; [18],71.1±12.0% and 71.07%
same,FS,[3]; [18],36.9±9.7% and 36.88%
same,LVDd,[3]; [18],0.70 cm
same,LVDs,[3]; [18],0.46 cm
same,EF,[3]; [19],65.47%
same,FS,[3]; [19],34.23%
same,LVDd,[3]; [19],0.68 cm
same,LVDs,[3]; [19],0.46 cm
same,EF,[3]; [20],75.7±10.8% and 75.7%
same,FS,[3]; [20],41.3±11.0% and 41.3%
same,LVDd,[3]; [20],0.6 cm
same,LVDs,[3]; [20],0.5 cm
same,EF value,"[3]; 20 μg/kg, 5-day after drug administration, long-term monitoring",79.2 ± 4.7 %
same,EF,[3]; [21],52.29%
same,FS,[3]; [21],23.89%
same,LVDd,[3]; [21],0.74 cm
same,LVDs,[3]; [21],0.56 cm
same,EF value,"[3]; 20 μg/kg, after ligation prior to drug administration, long-term monitoring",52.4 ± 13.8%
